B1: Sec1-V5-His6 (natural protein)
chain: MSDLIELQRNYLIGVLNQIETKNNLKFLIIDKTVETILSYLFLTPQELLNNVTSVDLIDSPTRKGQSSIEAIYILEPTKYNINCIDADFMVRPPKYRRCHIRFLPGLTNPIFQFFQSKRYIAQNLESFKPIELGFFVKESQFFETLQMEHSLQVFFNNNCKALIPTNVRKIVGSLVSLCVITGEYPIVRYSVSNPVEEEDARNGNAVVNANSLTRSIANAFQIAIDTYARNNPDFPPQNTERPRSILIITDRTLDPFAPILHDFSYQAMAYDLVANVDTQKDIYHYSAENEAGEQEEKVSKLVDLYDPDWIDLKHQHIMDANEYIQGRIKELIAKNPLLVDRSNVKNTTDLLSVVAHLKDFDEERRRLILHKTLVDECLGENAERKLADISAIEQNLSGFGMDFSGEKIKHIIDDLLPALAMKEPTILDKLRYIIAYALFRGGIIELDFIKLLNFIGVTHEHENFQQYLKIFRNYDLIDFKLIKDKPKDKPFQKEWFHDTLVNDPNIYHTSRFVPAVGNILSKVIANPLLLSEQYFPYLKDKPIELLNEEEFQAGLANTSANSSSSLRNPRHKAAWTTKSSNIKKNIPRQRFFYYVIGGISIPEIKAAYDQSNLKNRDIFIGSDEILTPTKFLDEVERLQNPREFFKFKEDQRQQVNPPDFLLREMKPVAQPVSHVHLKSQDNSPKSGTSSPKAAGSLKSEPPEKEKKRSKFSRFLKRKSHHDK
B2: MBP-Sec9CT (domain or fragment)
chain: ARQQQEEDEAVDEIKQEIKFTKQSSVASTRNTLKMAQDAERAGMNTLGMLGHQSEQLNNVEGNLDLMKVQNKVADEKVAELKKLNRSILAVHVSNPFNSKRRRREREEQLKNRKIEEKLMREQTSQQLSQSTQRIEGAMNANNNISEVRERYQRKNVLEKAKRYQFENDEEDDEMELEIDRNLDQIQQVSNRLKKMALTTGKELDSQQKRLNNIEESTDDLDINLHMNTNRLAGIR
B3: Sec9CT (416–651) (domain or fragment)
chain: B2 chain
B4: Sso1, cytoplasmic region (domain or fragment)
chain: MSYNNPYQLETPFEESYELDEGSSAIGAEGHDFVGFMNKISQINRDLDKYDHTINQVDSLHKRLLTEVNEEQASHLRHSLDNFVAQATDLQFKLKNEIKSAQRDGIHDTNKQAQAENSRQRFLKLIQDYRIVDSNYKEENKEQAKRQYMIIQPEATEDEVEAAISDVGGQQIFSQALLNANRRGEAKTALAEVQARHQELLKLEKSMAELTQLFNDMEELVIEQQENVDVIDKNVEDAQLDVEQGVGHTDKAVKSARKARKNKIR

The target of assay [1] is T1, Recombinant Sec6 (1–805) (yeast, UniProt P32844 1-805).
T1 sequence: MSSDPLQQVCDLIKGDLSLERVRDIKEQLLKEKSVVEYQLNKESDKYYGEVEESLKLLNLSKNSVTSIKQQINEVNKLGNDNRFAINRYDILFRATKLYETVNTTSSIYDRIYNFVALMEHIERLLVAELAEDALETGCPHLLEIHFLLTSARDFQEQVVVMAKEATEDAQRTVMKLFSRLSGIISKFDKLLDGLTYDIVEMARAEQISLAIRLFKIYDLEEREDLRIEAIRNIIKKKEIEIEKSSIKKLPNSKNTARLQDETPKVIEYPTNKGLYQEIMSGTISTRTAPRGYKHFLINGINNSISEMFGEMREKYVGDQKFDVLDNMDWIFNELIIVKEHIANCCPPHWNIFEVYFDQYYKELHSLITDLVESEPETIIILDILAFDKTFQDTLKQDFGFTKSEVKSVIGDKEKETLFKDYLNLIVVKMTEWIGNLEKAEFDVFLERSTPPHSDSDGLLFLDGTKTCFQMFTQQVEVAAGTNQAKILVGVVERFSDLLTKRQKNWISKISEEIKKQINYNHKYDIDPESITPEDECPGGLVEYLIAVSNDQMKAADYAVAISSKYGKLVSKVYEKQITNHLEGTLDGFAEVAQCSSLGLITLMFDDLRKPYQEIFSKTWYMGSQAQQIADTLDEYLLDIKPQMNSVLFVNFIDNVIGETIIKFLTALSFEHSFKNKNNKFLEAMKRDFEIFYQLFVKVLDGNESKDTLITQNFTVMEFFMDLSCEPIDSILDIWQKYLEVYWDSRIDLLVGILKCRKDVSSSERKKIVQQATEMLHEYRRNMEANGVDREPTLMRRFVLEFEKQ
The experiment in a line: pull-down.

Assay [2] concerns the target T1, Recombinant Sec6 (1–805). Kind of assay: […].
Assay [3] addresses T1, Recombinant Sec6 (1–805). The experiment in a line: SEC. (In general: In gel filtration, larger molecules generally elute earlier.)
For the assay “Sec1-V5-His6”, the target named is B1. The experiment in a line: pull-down.

With B1, the Kd with Recombinant Sec6 (1–805) [1] is about 1700 nM.

As to B2, the binding result in the assay with Recombinant Sec6 (1–805) [2] was “binds”.

Take B3: the binding result with Recombinant Sec6 (1–805) [3] is recorded as “binds”.

On to B4, for which the Kd in the assay with Sec1-V5-His6 is over 10000 nM.

Usually Kd stands for a measure of binding affinity in units of concentration.

The values are drawn from publication PMC3258177 (Molecular Biology of the Cell, 2012).
